Experiment [1] addresses T1, human CCR8 (HA-tagged) on stably transfected HEK293 cells (human, UniProt P51685 1-355). Description: flow cytometry on cells. Background: In flow cytometry, cells or beads pass a laser one at a time.
Experiment [2] addresses T2, human CCR8 carried on proteoliposomes (human, UniProt P51685 1-355). Put plainly: SPR. Background: Surface plasmon resonance follows binding to a sensor surface in real time, without labels.
The target in experiment [3] is T2, human CCR8 carried on proteoliposomes. Put plainly: SPR. The source holds these as a separate data set.
Experiment [4] has as its target T3, human CCR4 carried on liposomes (human, UniProt P51679 1-360).
T3 sequence (looked up): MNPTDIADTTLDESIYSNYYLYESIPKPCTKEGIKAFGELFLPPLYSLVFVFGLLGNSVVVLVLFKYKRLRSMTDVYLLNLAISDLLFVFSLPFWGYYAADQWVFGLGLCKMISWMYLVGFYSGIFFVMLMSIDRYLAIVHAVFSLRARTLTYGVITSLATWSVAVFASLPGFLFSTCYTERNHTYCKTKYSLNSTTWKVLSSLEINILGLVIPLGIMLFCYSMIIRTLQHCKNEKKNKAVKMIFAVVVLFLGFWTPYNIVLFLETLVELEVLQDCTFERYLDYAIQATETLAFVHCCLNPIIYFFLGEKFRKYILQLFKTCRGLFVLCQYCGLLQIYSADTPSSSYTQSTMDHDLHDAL
Description: SPR.

In experiment [5] the target is T1, human CCR8 (HA-tagged) on stably …. Put plainly: flow cytometry on cells. This is another data set of the same source.

Like-named read-outs stand apart in the source and are kept apart here.

Usually IC50 stands for the concentration that inhibits the measured activity by half. A word on the Kd: it is the equilibrium constant for the complex coming apart. Read a high Kd as a looser complex. Usually koff stands for the first-order rate constant of dissociation. A low value points to a long-lived complex.

B1: unlabeled human recombinant CCL1 (ligand, UniProt P22362 24-96, looked up)
chain: KSMQVPFSRCCFSFAEQEIPLRAILCYRNTSSICSNEGLIFKLKRGKEACALDTVGWVQRHRKMLRHCPSKRK
As for B1, the IC50 in experiment [1] was found to be 0.58 nM.

B2: biotinylated human recombinant CCL17 (ligand, UniProt Q92583 24-94, looked up)
chain: ARGTNVGRECCLEYFKGAIPLRKLKTWYQTSEDCSRDAIVFVTVQGRAICSDPNNKRVKNAVKYLQSLERS
modifications: biotin (biotinylated; site not stated)
B2 yielded a Kd in experiment [2] of 11.7 nM. In experiment [3], the equilibrium dissociation constant (Kd) is 1.1 ± 0.4 nM and the koff is 0.00042 s⁻¹. In addition, the binding result in experiment [4] is listed as “binds”.

B3: unlabeled human recombinant CCL17 (ligand, UniProt Q92583 24-94, looked up)
chain: ARGTNVGRECCLEYFKGAIPLRKLKTWYQTSEDCSRDAIVFVTVQGRAICSDPNNKRVKNAVKYLQSLERS
As to B3, the IC50 in experiment [5] stood at 9.4 nM; in experiment [1], 4.9 nM.

Source of the values: article PMC7616283 (Nature cardiovascular research, 2024).
